Measured values published in patent US20240409645A1 (DUALYX, published 2024).

Key:
human IL-2Rβ [1] = target: T1, human IL-2Rβ (human, UniProt P14784 27-240, limits assumed); assay: SPR, P.E. off-rate
T1 construct: recombinant protein, coated or immobilised; also called hu IL-2R; IL-2R beta
T1 sequence: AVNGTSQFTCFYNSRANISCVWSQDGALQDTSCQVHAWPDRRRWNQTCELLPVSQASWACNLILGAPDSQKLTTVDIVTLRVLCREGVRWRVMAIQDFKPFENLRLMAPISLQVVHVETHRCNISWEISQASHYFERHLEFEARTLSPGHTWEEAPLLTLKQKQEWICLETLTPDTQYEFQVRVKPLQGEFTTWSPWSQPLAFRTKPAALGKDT
Experimental: SPR was performed to determine dissociation rates using Biacore 3000 instrument (GE Healthcare). Briefly, human and mouse IL-2R proteins were immobilized on carboxylmethyl dextran sensor chip (CM5) at approximately 2500 RUs using amine coupling in acetate buffer (GE Healthcare). The VHH-containing P.E. were loaded with a flow rate of 30 uL/min and the off-rates were measured over a 120s period.

human IL-2Rβ [2] = target: T1, human IL-2Rβ; assay: P.E. ELISA, coated protein
Experimental: In a binding ELISA, human or mouse IL-2Rα, IL-2Rβ and IL-2Rγ proteins were coated directly on maxisorp microtiter plates overnight at 4° C. Free binding sites were blocked using 4% Marvel in PBS for 1 hour. Next, 1:5 dilution of P.E. in 1% Marvel/PBS were added to wells and incubated for 1 hour. […] Binding specificity was determined based on O.D. at 450 nm values compared to negative controls.

B1: FJ1427_P035MP02B09 (VHH)
VHH: EVQLVESGGGLVQAGGSLRLSCAASGRTFSTTEMGWFRQAPGKEREFVAAITWTGRGTMYAESVEGRFTISRENAKNMVYLQMNSLKPEDTAIYYCAAARRGRAAVRSEGGYDFWGQGTQVTVSS
notes: soluble VHH in periplasmic extract; also called clone nr
koff (human IL-2Rβ [1]): 0.00022 s⁻¹ | P.E. binding ELISA OD (human IL-2Rβ [2]): 0.811 OD450 nm

B2: FJ1427_P035MP02A11 (VHH)
VHH: EVQLVESGGGLVQAGGSLRLSCAASGRTFSTTEMGWFRQAPGKEREFVAAITWTGRGTMYAESVEGRFTISRENAKNMVYLQMNSLKPEDTAIYYCAAARRGRAAVRSEGGYDFWGQGTQATVSS
notes: as for B1
koff (human IL-2Rβ [1]): 0.000293 s⁻¹ | P.E. binding ELISA OD (human IL-2Rβ [2]): 0.891 OD450 nm

B3: FJ1427_P035MP02G10 (VHH)
VHH: QVQLVESGGGLVQAGGSLRLSCAASGRTFSTTEMGWFRQAPGKEREFVAAITWTGRGTMYAESVEGRFTISRENAKNMVYLQMNSLKPEDTAIYYCAAARRGRAAVRSEGGYDFWGQGTQVTVSS
notes: as for B1
koff (human IL-2Rβ [1]): 0.000307 s⁻¹ | P.E. binding ELISA OD (human IL-2Rβ [2]): 0.974 OD450 nm

B4: FJ1427_P035MP02D07 (VHH)
VHH: EVQLVESGGGLVQAGGSLRLSCAASGRSLSTTEMGWFRQAPGKEREFVAAITWSGRGTMYAESVEGRFAVSRENAKNTVYLQMNSLKPEDTAIYYCAAARRGRAAVRSEGGYDFWGQGTQVTVSS
notes: as for B1
koff (human IL-2Rβ [1]): 0.000982 s⁻¹ | P.E. binding ELISA OD (human IL-2Rβ [2]): 0.747 OD450 nm

B5: FJ1427_P035MP03F08 (VHH)
VHH: EVQLVESGGGLVQTGGSLRLSCAASGGTFSRDAMAWFRQVPGKEREFVALISWSGATTNYADSVKGRFAISRDNGKNTVYLQMNRLKPADTAIYYCAADRRPMGSRSYFEPTEYDDWGQGTQVTVSS
notes: soluble VHH in periplasmic extract; also called 19-MP03F08; clone nr
koff (human IL-2Rβ [1]): 0.000296 s⁻¹ | P.E. binding ELISA OD (human IL-2Rβ [2]): 0.245 OD450 nm

B6: FJ1427 P035MP02C08 (VHH)
VHH: EVQLVESGGGLVQAGGSLRLSCAASGSTFSRQPMYWFRQAPGKEREFVAAITWSGRGTLYADSVEGRFTISRDNAKNTVYLQMNSLRPDDTAAYYCAAGPYGDAAYRHGRIDSWGQGTQVTVSS
notes: as for B1
koff (human IL-2Rβ [1]): 0.00333 s⁻¹ | P.E. binding ELISA OD (human IL-2Rβ [2]): 0.254 OD450 nm

B7: FJ1427 P035MP02C11 (VHH)
VHH: QVQLVESGGGLVQAGGSLRLSCAVSGDVFVRYTMAWFRQAPGKEREFVASVTDSGRTTEYVDSVKGRFTVSRDNAKNTVYLQMNSLKPEDTAVYYCAANTDYFQIRSLRANTWGQGTQVTVSS
notes: as for B1
koff (human IL-2Rβ [1]): 0.000433 s⁻¹ | P.E. binding ELISA OD (human IL-2Rβ [2]): 1.57 OD450 nm

B8: FJ1427_P035MP02A09 (VHH)
VHH: QVQLVESGGGLVQAGGSLRLSCAVSGDVFVRYTMAWFRQAPGKEREFVASVTDSGRTTEYVDSAKGRFTVSRDNAKNTVYLQMNSLKPEDTAVYYCAANTDYFQIRSLRANTWGQGTQVTVSS
notes: as for B1
koff (human IL-2Rβ [1]): 0.000617 s⁻¹ | P.E. binding ELISA OD (human IL-2Rβ [2]): 1.3 OD450 nm

B9: FJ1427 P035MP02F07 (VHH)
VHH: QVQLVESGGGLVQAGGSLRLSCAASGDVFVRYTMAWFRQAPGKEREFVASVTDSGRTTDYVDSVKGRFTVSRDNAKNTVYLQMNNLKPEDTARYYCAANTDYFQIRSLDANTWGQGTQVTVSS
notes: soluble VHH in periplasmic extract; also called clone nr; 150
koff (human IL-2Rβ [1]): 0.00164 s⁻¹ | P.E. binding ELISA OD (human IL-2Rβ [2]): 0.848 OD450 nm

B10: FJ1427_P035MP06F03 (VHH)
VHH: QVQLVESGGGLVQAGGSLRLSCAVSGDVFVRYTMAWFRQAPGKEREFVASVTDSGRTTDYVHSVKGRFTVSRDNAKNTVYLQMNNLKPEDTAVYYCAANTDYFQIKSLDANTWGQGTQVTVSS
notes: soluble VHH in periplasmic extract; also called 23-MP06F03; clone nr; 502
koff (human IL-2Rβ [1]): 0.00105 s⁻¹ | P.E. binding ELISA OD (human IL-2Rβ [2]): 0.54 OD450 nm

B11: FJ1427_P035MP02E07 (VHH)
VHH: QVQLVESGGGLVQAGGSLGLACALSGDVFVRYTMAWFRQAPGKEREFVASVTDSGRTTDYVASVQGRFTVSRDNNKNTVYLQMNSLKPEDTAVYYCAANTDYFQIRSLDRNTWGQGTQVTVSS
notes: as for B1
koff (human IL-2Rβ [1]): 0.000577 s⁻¹ | P.E. binding ELISA OD (human IL-2Rβ [2]): 0.541 OD450 nm

B12: FJ1427_P035MP02G07 (VHH)
VHH: QVQLVESGGGLVQAGGSLRLSCAVSGDVFVRYTMAWFRQAPGKEREFVASVTDSGRTTEYVDSVKGRFTVSRDNAKNTAYLQMNNLKPEDTAVYYCAANTDYFQIRSLDLNTWGQGTQVTVSS
notes: as for B1
koff (human IL-2Rβ [1]): 0.000259 s⁻¹ | P.E. binding ELISA OD (human IL-2Rβ [2]): 0.636 OD450 nm

B13: FJ1427_P035MP06A07 (VHH)
VHH: QVQLQESGGGLVQAGGSLRLSCAASGDVFVRYTMAWFRQAPGKEREFVASVTDSGRTTEYVDSVKGRFTVSRDNAKNTAYLQMNNLKPEDTAIYYCAANTDYFQIRSLDLNTWGQGTQVTVSS
notes: soluble VHH in periplasmic extract; also called 26-MP06A07; clone nr
koff (human IL-2Rβ [1]): 0.000363 s⁻¹ | P.E. binding ELISA OD (human IL-2Rβ [2]): 1.03 OD450 nm

B14: FJ1427_P035MP03F10 (VHH)
VHH: EVQLVESGGGLVQAGGSLRLSCAASGRDFSSYAMGWFRQAPGKEREFVVAITWTKRSTDFPDSVKGRFTISRDNAKNTVYLDMNSLKPEDTAVYYCASARGLPVTPLGDIIYWGEGTLVTVSS
notes: soluble VHH in periplasmic extract; also called 20-MP03F10; clone nr; 270
koff (human IL-2Rβ [1]): 0.000595 s⁻¹ | P.E. binding ELISA OD (human IL-2Rβ [2]): 0.497 OD450 nm

B15: FJ1427_P035MP02H08 (VHH)
VHH: EVQLVESGGGLVQAGDSLRISCAASGRIFSNYAMGWFRQAPGKETEFVAGITHLTSTTHYADSVKGRFTISRDNAKNTMHLQMNNLKPEDTALYYCAADRNIKITADWSYWGQGTQVTVAS
notes: soluble VHH in periplasmic extract; also called clone nr; 160
koff (human IL-2Rβ [1]): 0.000731 s⁻¹ | P.E. binding ELISA OD (human IL-2Rβ [2]): 0.885 OD450 nm

B16: FJ1427 P035MP02D11 (VHH)
VHH: QVQLQESGGGLVQAGDSLRISCAASGRIFSNYAMGWFRQAPGKETEFVAGITHLTSTTHYADSVKGRFTISRDNAKNTMHLQMNNLKPEDTALYYCAADRNIKITADWSYWGQGTQVTVAS
notes: soluble VHH in periplasmic extract; also called clone nr; 180
koff (human IL-2Rβ [1]): 0.000833 s⁻¹ | P.E. binding ELISA OD (human IL-2Rβ [2]): 0.463 OD450 nm

B17: FJ1427 P035MP02E11 (VHH)
VHH: QVQLQESGGGLVQAGGSLRLSCAASGRTFSNYVMAWFRQAPGKEREFVGAITQTGRGTFYADSVEGRFTISRINDKNTVYLQMNSLKPEDTAVYYCSAPRSGRAGTRNQMDYEYWGQGTQVTVSS
notes: as for B1
koff (human IL-2Rβ [1]): 0.00188 s⁻¹ | P.E. binding ELISA OD (human IL-2Rβ [2]): 0.529 OD450 nm

B18: FJ1427 P035MP02A10 (VHH)
VHH: QLQLVESGGGLVQTGTSLRLSCAASGHTSRINAMGWFRQFPGKEREFVAAISRNGGSTVYVDSVKGRFTISRDNAKSTVYLQMNSLKPEDTAVYYCTATDAVGWTTRWMTADFGFWGQGTQVTVSS
notes: as for B1
koff (human IL-2Rβ [1]): 0.00226 s⁻¹ | P.E. binding ELISA OD (human IL-2Rβ [2]): 0.359 OD450 nm

B19: FJ1427_P035MP02F08 (VHH)
VHH: QVQLVESGGGLVQAGGSLRLSCAASGSIFSLNTMGWFRQAPGKEREFVAAISRSGGSATYGDSVKGRFTISTNNAKTTVYLQMNSLKPDDTAVYSCAASAAVGWTTRWSTIDFDSWGQGTQVTVSS
notes: as for B1
koff (human IL-2Rβ [1]): 0.00153 s⁻¹ | P.E. binding ELISA OD (human IL-2Rβ [2]): 0.614 OD450 nm

B20: FJ1427 P035MP06E05 (VHH)
VHH: QVQLVESGGELVQGGASLRLSCAASGRTFSNANMAWFRQAPEKEREFVALITWSSGSTLYADSVKGRFTISRDNARKMVYLQMNSLKPEDTAVYYCAADGPPYSGTYYRYDTYDYWGQGTQVTVSS
notes: soluble VHH in periplasmic extract; also called 24-MP06E05; clone nr; 517
koff (human IL-2Rβ [1]): 0.000471 s⁻¹ | P.E. binding ELISA OD (human IL-2Rβ [2]): 0.355 OD450 nm

B21: FJ1427_P035MP03C03 (VHH)
VHH: QVQLVESGGGLVQPGGSLRLSCAISGGTLDSYGIGWVRQAPGKQREGVSCMSRSDDRTYYADSVKGRFTISKDSAKNTVYLQMTSLKPEDTAVYYCAAVDAYGCSLVQPTTYDFWGLGTQVTVSS
notes: soluble VHH in periplasmic extract; also called 18-MP03C03; clone nr
koff (human IL-2Rβ [1]): 0.000594 s⁻¹ | P.E. binding ELISA OD (human IL-2Rβ [2]): 0.405 OD450 nm

B22: FJ1427_P035MP03F12 (VHH)
VHH: EVQLVESGGGLVQAGGSLRLSCAASGSIFSINAMAWFRQVPGMERELVAAISRDGGASVYRDSVKGRFTISRDNSKNTVYLQMNTLKPEDTAIYVCAATRAIGWTARWITTDFDFWGQGTQVTVSS
notes: soluble VHH in periplasmic extract; also called 22-MP03F12; clone nr
koff (human IL-2Rβ [1]): 0.000419 s⁻¹ | P.E. binding ELISA OD (human IL-2Rβ [2]): 0.781 OD450 nm

B23: FJ1427_P035MP06F05 (VHH)
VHH: QVQLVESGGGLVQTGDSLRLSCAASGRSLDTTYIAWFRQAPGKERDFLAYISPRFSHTWYADSVKGRFTISRNIAKRTVDLEMNSLEPEDTAVYYCAAREHSGSTAWEHYDHWGQGTQVTVSS
notes: soluble VHH in periplasmic extract; also called 25-MP06F05; clone nr
koff (human IL-2Rβ [1]): 0.000836 s⁻¹ | P.E. binding ELISA OD (human IL-2Rβ [2]): 0.159 OD450 nm

B24: FJ1427_P035MP02C09 (VHH)
VHH: QVQLQESGGGLVQAGGSLRLSCVASGSVSSINGMAWYRQGADNQRVLVAAISRVGNTAYGDSVKGRFTISRQNARNTVYLQMNSLKPEDTAVYYCNADSWGGDDYWGQGTQVTVSS
notes: soluble VHH in periplasmic extract; also called 17-MP02C09; clone nr
koff (human IL-2Rβ [1]): 0.000848 s⁻¹ | P.E. binding ELISA OD (human IL-2Rβ [2]): 1.21 OD450 nm

B25: FJ1427 P035MP02D10 (VHH)
VHH: EVQLVESGGGLVQAGGSLRLSCAASGRTFSSDAKAWFRQAPGKEREFVAAITWAGRGTDYADSVKDRFTITRDNAKNMVYLQMSSLKPEDTAVYYCALNPTGVIGPGFRNSNRYDYWGQGTQVTVAS
notes: as for B1
koff (human IL-2Rβ [1]): 0.00109 s⁻¹ | P.E. binding ELISA OD (human IL-2Rβ [2]): 0.557 OD450 nm
